Laboratory results from patent US20220251235A1 (published 2022).

Tests used:
[1] = molecular target: T1, MAGEA10 peptide on HLA-A*02:01 (human); experiment: multimer staining
T1 peptide: SLLKFLAKV

peptide on HLA-A*02:01 = molecular target: T2, peptide on HLA-A*02:01 (human); experiment: cytokine release
T2 peptide: KLYGLDWAEL

[2] = molecular target: T3, MAGEA10 peptide on HLA-A*02:04 (human); experiment: cytokine release
T3 peptide: SLLKFLAKV

B1: MAGE-A10^SLL-TCR (TCR, V domains shown)
Valpha: DQQVKQNSPSLSVQEGRISILNCDYTNSMFDYFLWYKKYPAEGPTFLISISSIKDKNEDGRFTVFLNKSAKHLSLHIVPSQPGDSAVYFCAANSNSGYALNFGKGTSLLVTP
Vbeta: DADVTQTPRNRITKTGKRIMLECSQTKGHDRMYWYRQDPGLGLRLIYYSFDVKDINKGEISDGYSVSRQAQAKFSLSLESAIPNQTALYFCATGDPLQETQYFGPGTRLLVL
binding result [1]: recognises | binding result (peptide on HLA-A*02:01): no recognition | binding result [2]: recognises
